The target in this assay is avGFP [GFP: P42212]. The experiment in a line: SEC. Background: SEC sorts molecules by how far they enter the pores of the column.

For orientation: stoichiometry N means the number of molecules, sites or subunits per partner or assembly. The substance “avGFP (from UniProt P42212 1-237) (natural protein)” had a stoichiometry N of 2.

The values above are taken from article doi:10.1101/2024.08.01.606258.
